Results as given in the Human Domainome abundance scans (Beltran et al. 2025).

B1: Pituitary-specific positive transcription factor 1, residues 130 to 198; numbered along this chain, P28069 (parent)
chain: RELEKFANEFKVRRIKLGYTQTNVGEALAAVHGSEFSQTTICRFENLQLSFKNACKLKAILSKWLEEAE

Variants of: B1
Assay: abundance fitness (aPCA) (normalised: wild type 0, dead -1); higher = more abundant; growth selection in yeast, the domain comes from the species named
Settings: Homo sapiens

Abundance fitness: each site, then its substitutions
I41: N -0.88 | T -0.892 | V -0.523 | K -0.842 | S -0.866
T40: Q -0.211 | S -0.348 | H -0.403 | W -0.624 | C -0.512 | G -0.528 | L -0.003 | I -0.642 | D 0.308 | M -0.431 | E -0.193 | N -0.71 | V -0.314 | A -0.235 | F -0.911
S34: W -0.562 | Y -0.373 | H 0.039 | C -0.431 | E 0.019 | D -0.015 | M -0.188 | I -0.171 | T -0.139 | F -0.387 | L -0.253 | Q 0.057 | K 0.09 | A -0.079 | V -0.084 | R -0.038 | N 0.107 | P 0.133
F36: N -0.758 | H -0.747 | L -0.393 | C -0.526 | K -0.744 | I 0.128 | A -0.496 | P -0.702 | Q -0.517 | W -0.229 | G -1.05 | T -0.512 | M -0.31
C42: Y -0.243 | G -0.029 | F -0.348 | H -0.001 | D 0.325 | V -0.336 | T -0.02 | R 0.142 | W -0.101 | K 0.148 | M 0.311 | N 0.092 | P -0.761 | A 0.21
S37: V -0.833 | N 0.117 | R -0.743 | H -0.689 | Q -0.736 | C -0.281 | T -0.063 | W -0.925 | D 0.199 | E -0.568 | F -0.901 | L -0.682 | Y -0.508 | A -0.607 | P -0.544 | M -0.823 | I -0.697
Q38: T 0.277
H32: Y 0.276
